From publication PMC8319186, “Mitochondrial adaptor TRAK2 activates and functionally links opposing kinesin and dynein motors” (Nature Communications, 2021)

Tests used:
[1] = target: dynein heavy chain (endogenous, COS-7); assay: co-immunoprecipitation (Halo antibody IP, western blot quantification); details: extracts from COS-7 cells transfected with Myc-KIF5B and Halo-tagged constructs; mean ± s.d. from three independent experiments; parent: est. 0.21; read off a plot
Myc-KIF5C-Halo = target: T1, Myc-KIF5C-Halo (mouse, UniProt P28738 1-956); assay: cell-based or functional assay
T1 sequence (looked up): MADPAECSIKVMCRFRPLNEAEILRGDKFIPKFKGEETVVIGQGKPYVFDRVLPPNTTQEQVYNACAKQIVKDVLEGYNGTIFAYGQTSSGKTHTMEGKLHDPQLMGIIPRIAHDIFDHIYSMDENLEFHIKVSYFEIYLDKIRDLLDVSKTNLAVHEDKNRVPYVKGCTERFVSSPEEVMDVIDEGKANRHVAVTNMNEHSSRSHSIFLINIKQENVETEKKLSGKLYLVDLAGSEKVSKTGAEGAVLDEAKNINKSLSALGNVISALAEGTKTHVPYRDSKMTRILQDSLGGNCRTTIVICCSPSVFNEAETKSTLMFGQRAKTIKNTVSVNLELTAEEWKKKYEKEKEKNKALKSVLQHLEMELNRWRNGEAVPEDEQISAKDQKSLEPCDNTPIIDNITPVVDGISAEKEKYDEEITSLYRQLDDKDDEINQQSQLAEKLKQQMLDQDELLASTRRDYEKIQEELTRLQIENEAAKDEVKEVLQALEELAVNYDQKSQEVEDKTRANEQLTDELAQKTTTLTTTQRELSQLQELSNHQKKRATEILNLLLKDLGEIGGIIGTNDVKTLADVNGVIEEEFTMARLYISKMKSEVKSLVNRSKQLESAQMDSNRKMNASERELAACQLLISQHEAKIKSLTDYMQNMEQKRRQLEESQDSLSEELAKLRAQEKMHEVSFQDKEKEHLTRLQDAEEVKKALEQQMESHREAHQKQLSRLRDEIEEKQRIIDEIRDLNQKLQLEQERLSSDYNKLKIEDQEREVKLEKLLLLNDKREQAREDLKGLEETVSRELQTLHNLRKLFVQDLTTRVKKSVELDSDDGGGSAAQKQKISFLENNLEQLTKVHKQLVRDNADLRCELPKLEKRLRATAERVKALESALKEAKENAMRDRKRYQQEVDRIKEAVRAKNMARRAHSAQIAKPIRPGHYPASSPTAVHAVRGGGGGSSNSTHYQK

Molecule: Halo-TRAK2 (from UniProt O60296) A129V; A130V
- response [1]: 0.08

Molecule: Halo-TRAK2 (from UniProt O60296) I132D
- response [1]: 0.07

B1: HA-TRAK2 (natural protein, UniProt O60296 1-914, looked up)
chain: MSQSQNAIFTSPTGEENLMNSNHRDSESITDVCSNEDLPEVELVSLLEEQLPQYRLKVDTLFLYENQDWTQSPHQRQHASDALSPVLAEETFRYMILGTDRVEQMTKTYNDIDMVTHLLAERDRDLELAARIGQALLKRNHVLSEQNESLEEQLGQAFDQVNQLQHELCKKDELLRIVSIASEESETDSSCSTPLRFNESFSLSQGLLQLEMLQEKLKELEEENMALRSKACHIKTETVTYEEKEQQLVSDCVKELRETNAQMSRMTEELSGKSDELIRYQEELSSLLSQIVDLQHKLKEHVIEKEELKLHLQASKDAQRQLTMELHELQDRNMECLGMLHESQEEIKELRSRSGPTAHLYFSQSYGAFTGESLAAEIEGTMRKKLSLDEESSLFKQKAQQKRVFDTVRIANDTRGRSISFPALLPIPGSNRSSVIMTAKPFESGLQQTEDKSLLNQGSSSEEVAGSSQKMGQPGPSGDSDLATALHRLSLRRQNYLSEKQFFAEEWQRKIQVLADQKEGVSGCVTPTESLASLCTTQSEITDLSSASCLRGFMPEKLQIVKPLEGSQTLYHWQQLAQPNLGTILDPRPGVITKGFTQLPGDAIYHISDLEEDEEEGITFQVQQPLEVEEKLSTSKPVTGIFLPPITSAGGPVTVATANPGKCLSCTNSTFTFTTCRILHPSDITQVTPSSGFPSLSCGSSGSSSSNTAVNSPALSYRLSIGESITNRRDSTTTFSSTMSLAKLLQERGISAKVYHSPISENPLQPLPKSLAIPSTPPNSPSHSPCPSPLPFEPRVHLSENFLASRPAETFLQEMYGLRPSRNPPDVGQLKMNLVDRLKRLGIARVVKNPGAQENGRCQEAEIGPQKPDSAVYLNSGSSLLGGLRRNQSLPVIMGSFAAPVCTSSPKMGVLKED
- frequency of KIF5C runs along dynamic microtubules (single-molecule TIRF of COS-7 lysate) with against without exogenous HA-TRAK2 (Myc-KIF5C-Halo): > 3 fold
